According to patent CN117683122A (SHENZHEN BAY LABORATORY; UNIV TSINGHUA, dated 2024):

B1: 抗体B089 (antibody, V domains shown)
VH: EVQLLESGGGVVQPGRSLRLSCAASGFTFSSYAMHWVRQAPGKGLEWVAVISYDGSNKYYADSVKGRFTISRDNSKNTLYLQMNSLRAEDTAVYYCARFSGAYSYGYGVYWGQGTPVTVSS
VL: DIQLTQSPSFLSASVGDNVTITCRASQGIASRLAWYQQKPGKAPNLLISSSSTLQSGVPSRFTGSGYGTEFTLTMNTLQPEDSATYYCQQLNSYPLTFGGGTKVEIKR
B2: 抗体B010 (antibody, V domains shown)
VH: QVQLLDSGGGLVQPGGSLRLSCAASGFTFSSYAMHWVRQAPGKGLEWVAVISYDGSNKYYADSVKGRFTISRDNSKNTLYLQMNSLRAEDTAVYYCAQGWFDYWGQGTTVTVSS
VL: NIQMTQSPSTLSASVGDRVTITCRASQSIGPWLAWYQQKPGKAPKLLIYKASSLESGVPSRFSGSGSGTEFTLTISSLQPEDFATYHCQQYKSYPYSFGQGTKVDIKR
B3: 抗体B083 (antibody, V domains shown)
VH: EVQLLESGGGVVRPGGSLRLSCAASGFTFGDYGMSWVRQAPGKGLEWVSGINWNGGSTGYADSVKGRFTISRDNAKNSLYLQMNSLRVEDSGVYYCARYGRVPDNWGQGTMVTVSS
VL: NIQLTQSPSSLSASVGDRVTITCRASQGVNNWLAWYQQKPGKAPKLLIYAASTLESGVPSRFSGSGSATDFTLTINGLQPEDFATYYCQQAKRFPWTFGQGTKVEIKR
B4: 抗体B161 (antibody, V domains shown)
VH: QVQLLESGGGLVKPGGSLRLSCAASGFTFSSYSMSWVRQAPGKGLEWVSSISGGSDYIYYADPVRGRFTISRDNAKNSVYLQMNSLRAEDTAVYYCGRGITGIFNWGQGTPVTVSS
VL: DIQLTQSPSSLSASVGDRVTITCRASQSINNYLNWYQQKPGKAPKVLIYAASSLPRGVPSRFSGSGSGTDFTLTISSLQPEDFASYYCQQSYTSPLTFGQGTKVEVKR
B5: 抗体B019 (antibody, V domains shown)
VH: QVQLLESGGTLVQPGGSLRLSCAASGFSFRTHDMNWVRQAPGKGLEWVSHISSTGSTIYYADSVKGRFTISRDNAKNSLYLQMNSLRADDTAVYYCARDRFTIFGVGPPFYYMDVWGQGTLVTVSS
VL: DIQLTQSPSSLSASVGDRVTITCRASQGISSYLAWYQQKPGKAPKLLIYAASTLQSGVPSRFSGSGSGTDFTLTISSLQPEDFATYYCQQSYSTPRTFGQGTKVEIKR
B6: 抗体B026 (antibody, V domains shown)
VH: EVQLLESGGGVVQPGNSLRLSCAASGFTFSSYNMNWVRQAPGKGLEWVSSISSRSSYIYYADSVKGRFTISRDNAKNTLYLQMSSLRSEDTAVYFCVRRNGAFDIWGQGTMVTVSS
VL: DIQMTQSPSSLSASVGDRVTITCRASQSITTYLNWYQQKPGKAPKLLIYAASSLQSGVPSRFSGSGSGTDFTLTISSLQPEDFATYYCQQSYGIPRTFGQGTKVEIKR

Target: 重组猴痘病毒表面蛋白B6R-His (monkeypox virus, UniProt P0DTN2 20-279)

Binder	Kd [nM]
B1	< 1
B2	< 1
B3	< 1
B4	< 1
B5	< 1
B6	< 1
